“And” between values parts separate entries of the source, which are not always exact repeats. Equal entries are not always repeated.
B1: p97 (valosin-containing protein), D. discoideum, recombinant (enzyme, UniProt P90532 1-793, looked up)
chain: MATIEDTSKDNNNPILERKKAPNRLFVEEAINDDNSVVTLNPETMDQLQFFRGDTLLIKGKKRRDTVCIVLSDPTIDPSKIRMNKVVRNNLRVRLGDMISVHQCSDVKYGKRIHVLPIDDTIEGLSGNLFDLYLKPYFLEAYRPVRKGDLFLVRGGMRAVEFKVVETDPGEYCIVAPETFIHCEGEAVKREDEDRLDEVGYDDIGGVRKQLGQIRELVELPLRHPQLFKNIGVKPPKGILLYGPPGCGKTMIARAVANETGAFFFLINGPEIMSKLAGESESNLRKAFEEAEKNAPSIIFIDEIDSIAPKREKTQGEVERRIVSQLLTLMDGLKSRAHVIVMGATNRPNSIDPALRRFGRFDREIDITIPDATGRLEIMRIHTKNMKLDETVDLEAVANETHGYVGADLAALCTESALQCIREKMDVIDLEDETISAEILESMSVTQDHFRTALTLSNPSALRETVVEVPTTTWEDIGGLEGVKRELRETVQYPVEHPEKFRKFGMQPSKGVLFYGPPGCGKTLLAKAIANECQANFISIKGPELLTMWFGESEANVRELFDKARQAAPCVLFFDELDSIARSRGSSQGDAGGAGDRVINQILTEMDGMNAKKNVFIIGATNRPDIIDPAILRPGRLDQLIYIPLPDLPSRVAILKACLNKSPVAKDVDLEFLGQKTQGFSGADLTEICQRACKLAIRESIEKDIESTKARQESGDTKMEDDSVDPVPEITRDHFQEAMRSARRSVSDNDIRKYESFAQTLVQSRGLGNNFKFPDQESSGQFNQDQSDDLFSN
notes: AAA+ ATPase p97 (VCP), D. discoideum; purification as in Rijal et al., 2016; Whether p97 was made as a GST fusion and cleaved is not clearly said; also called VCP; source: E. coli XL1 Blue or ArcticExpress, purified
B2: UBXD9, full length, GST tag cleaved (natural protein, D. discoideum, UniProt Q54X06 1-573, looked up)
chain: MSSIHIIYKTGKTTVPVIASTVMMEVLKKACQYFKIDDSRFQLMYGSTYVNLSLPFRLSGIPNLSRVTIMEKKGASISTVKIAIQMDDGKRFQSNFKTSSTLWDILLTFETEQNLSLTKRFNDVNQYIEPVVTILNREISTIESLQKSSLASINVNEASLIKLTFKQTDRTNEEVLPIIVSYQSPSTPTESPTTTTTTTTTTTTNNTTKEESPKTTNSPTNSESSTKSQNSSGSQQSPIIISPPTQQSTSSDVSTPTMDIDSPLVKNVEKSPISDLGLNPSSNIPLPDKTYNNETTTTTTTTSNNDVQVSTPPKIATMDHKDRELLVYTPSNNQVDPKSIRHNEKMTEEDIKRLVEANKRVKKEKEEFDSVLRTKAMREREAYKKHKNFSTSIIRIVFPGGQKILEMKFLIREKISNLLKYINEYILAQPNDSVYLYTTPPNKTLDLNTTFLKEGLFPRAKIFLGVSPGTTLIFSELVNELIEESNNKNNNNNNNNNTTTTTTSTISQEELDKQEEEQERIEEQMKIEEEKQLKLEDEQEKERQRALRSMFNNEKEGDSQKRPVPKWFTAGKK
notes: The cleaved state is stated for the Blue Native PAGE; also called full-length UBXD9; source: E. coli XL1 Blue or ArcticExpress, purified, liberated from the beads with PreScission protease

Target: the molecule itself
Assay: native gel or EMSA; Blue Native PAGE, purified recombinant non-tagged proteins in 1 x PBS, 1 mM DTT, 1 mM ATP; 4-16% Bis-Tris gels, cold room, Coomassie staining

| Protein | stoichiometry N |
| --- | --- |
| B1 | 6 and 2 |
| B2 | 6 |
